Experimental findings from patent US20220033462A1 (ALLOGENE THERAPEUTICS, published 2022) are described below.

Residue numbers refer to the chain shown, from its start.

To fix the notation:
B1: N-CAR CD244 (SEQ ID No 1999 with intracellular domain SEQ ID No 2002) (other)
chain: EVQLQQSGPELVKPGTSVRISCKTSGYTFTEYTIHWVKQSHGKSLEWIGNINPNNGGTTYNQKFEDKATLTVDKSSSTAYMELRSLTSEDSAVYYCAAGWNFDYWGQGTTVTVSSGGGGSGGGGSGGGGSDIVMTQSHKFMSTSVGDRVSIICKASQDVGTAVDWYQQKPGQSPKLLIYWASTRHTGVPDRFTGSGSGTDFTLTITNVQSEDLADYFCQQYNSYPLTFGAGTMLDLKRAAATERRAEVPTAHPSPSPRPAGQFQTLVVGVVGGLLGSLVLLVWVLAVIWRRKRKEKQSETSPKEFLTIYEDVKDLKTRRNHEQEQTFPGGGSTIYSMIQSQSSAPTSQEPAYTLYSLIQPSRKSGSRKRNHSPSFNSTIYEVIGKSQPKAQNPARLSRKELENFDVYS
B2: N-CAR PD1-CTLA4 (SEQ ID No 1999 with intracellular domain SEQ ID No 2003) (other)
chain: EVQLQQSGPELVKPGTSVRISCKTSGYTFTEYTIHWVKQSHGKSLEWIGNINPNNGGTTYNQKFEDKATLTVDKSSSTAYMELRSLTSEDSAVYYCAAGWNFDYWGQGTTVTVSSGGGGSGGGGSGGGGSDIVMTQSHKFMSTSVGDRVSIICKASQDVGTAVDWYQQKPGQSPKLLIYWASTRHTGVPDRFTGSGSGTDFTLTITNVQSEDLADYFCQQYNSYPLTFGAGTMLDLKRAAATERRAEVPTAHPSPSPRPAGQFQTLVVGVVGGLLGSLVLLVWVLAVICSRAARGTIGARRTGQPLKEDPSAVPVFSVDYGELDFQWREKTPEPPVPCVPEQTEYATIVFPSGMGTSSPARRGSADGPRSAQPLRPEDGHCSWPLAVSLSKMLKKRSPLTTGVYVKMPPTEPECEKQFQPYFIPIN
B3: N-CAR PD1-LAG3 (SEQ ID No 1999 with intracellular domain SEQ ID No 2004) (other)
chain: EVQLQQSGPELVKPGTSVRISCKTSGYTFTEYTIHWVKQSHGKSLEWIGNINPNNGGTTYNQKFEDKATLTVDKSSSTAYMELRSLTSEDSAVYYCAAGWNFDYWGQGTTVTVSSGGGGSGGGGSGGGGSDIVMTQSHKFMSTSVGDRVSIICKASQDVGTAVDWYQQKPGQSPKLLIYWASTRHTGVPDRFTGSGSGTDFTLTITNVQSEDLADYFCQQYNSYPLTFGAGTMLDLKRAAATERRAEVPTAHPSPSPRPAGQFQTLVVGVVGGLLGSLVLLVWVLAVICSRAARGTIGARRTGQPLKEDPSAVPVFSVDYGELDFQWREKTPEPPVPCVPEQTEYATIVFPSGMGTSSPARRGSADGPRSAQPLRPEDGHCSWPLHLWRRQWRPRRFSALEQGIHPPQAQSKIEELEQEPEPEPEPEPEPEPEPEPEQL
B4: N-CAR PD1 (SEQ ID No 1999 with intracellular domain SEQ ID No 2000) (other)
chain: EVQLQQSGPELVKPGTSVRISCKTSGYTFTEYTIHWVKQSHGKSLEWIGNINPNNGGTTYNQKFEDKATLTVDKSSSTAYMELRSLTSEDSAVYYCAAGWNFDYWGQGTTVTVSSGGGGSGGGGSGGGGSDIVMTQSHKFMSTSVGDRVSIICKASQDVGTAVDWYQQKPGQSPKLLIYWASTRHTGVPDRFTGSGSGTDFTLTITNVQSEDLADYFCQQYNSYPLTFGAGTMLDLKRAAATERRAEVPTAHPSPSPRPAGQFQTLVVGVVGGLLGSLVLLVWVLAVICSRAARGTIGARRTGQPLKEDPSAVPVFSVDYGELDFQWREKTPEPPVPCVPEQTEYATIVFPSGMGTSSPARRGSADGPRSAQPLRPEDGHCSWPL
B5: N-CAR BTLA (SEQ ID No 1999 with intracellular domain SEQ ID No 2001) (other)
chain: EVQLQQSGPELVKPGTSVRISCKTSGYTFTEYTIHWVKQSHGKSLEWIGNINPNNGGTTYNQKFEDKATLTVDKSSSTAYMELRSLTSEDSAVYYCAAGWNFDYWGQGTTVTVSSGGGGSGGGGSGGGGSDIVMTQSHKFMSTSVGDRVSIICKASQDVGTAVDWYQQKPGQSPKLLIYWASTRHTGVPDRFTGSGSGTDFTLTITNVQSEDLADYFCQQYNSYPLTFGAGTMLDLKRAAATERRAEVPTAHPSPSPRPAGQFQTLVVGVVGGLLGSLVLLVWVLAVIRRHQGKQNELSDTAGREINLVDAHLKSEQTEASTRQNSQVLLSETGIYDNDPDLCFRMQEGSEVYSNPCLEENKPGIVYASLNHSVIGPNSRLARNVKEAPTEYASICVRS
B6: N-CAR SIRPA (SEQ ID No 1999 with intracellular domain SEQ ID No 2011) (other)
chain: EVQLQQSGPELVKPGTSVRISCKTSGYTFTEYTIHWVKQSHGKSLEWIGNINPNNGGTTYNQKFEDKATLTVDKSSSTAYMELRSLTSEDSAVYYCAAGWNFDYWGQGTTVTVSSGGGGSGGGGSGGGGSDIVMTQSHKFMSTSVGDRVSIICKASQDVGTAVDWYQQKPGQSPKLLIYWASTRHTGVPDRFTGSGSGTDFTLTITNVQSEDLADYFCQQYNSYPLTFGAGTMLDLKRAAATERRAEVPTAHPSPSPRPAGQFQTLVVGVVGGLLGSLVLLVWVLAVIRIRQKKAQGSTSSTRLHEPEKNAREITQDTNDITYADLNLPKGKKPAPQAAEPNNHTEYASIQTSPQPASEDTLTYADLDMVHLNRTPKQPAPKPEPSFSEYASVQVPRK
B7: N-CAR PD1-L2-ITSM (SEQ ID No 1999 with intracellular domain SEQ ID No 2012) (other)
chain: EVQLQQSGPELVKPGTSVRISCKTSGYTFTEYTIHWVKQSHGKSLEWIGNINPNNGGTTYNQKFEDKATLTVDKSSSTAYMELRSLTSEDSAVYYCAAGWNFDYWGQGTTVTVSSGGGGSGGGGSGGGGSDIVMTQSHKFMSTSVGDRVSIICKASQDVGTAVDWYQQKPGQSPKLLIYWASTRHTGVPDRFTGSGSGTDFTLTITNVQSEDLADYFCQQYNSYPLTFGAGTMLDLKRAAATERRAEVPTAHPSPSPRPAGQFQTLVVGVVGGLLGSLVLLVWVLAVICSRAARGTIGARRTGQPLKEDPSAVPVFSVDYGELDFQWREKTPEPPVPCVPEQTEYATIDFQWREKTPEPPVPCVPEQTEYATIVFPSGMGTSSPARRGSADGPRSAQPLRPEDGHCSWPL
B8: N-CAR SIGLEC9 (SEQ ID No 1999 with intracellular domain SEQ ID No 2010) (other)
chain: EVQLQQSGPELVKPGTSVRISCKTSGYTFTEYTIHWVKQSHGKSLEWIGNINPNNGGTTYNQKFEDKATLTVDKSSSTAYMELRSLTSEDSAVYYCAAGWNFDYWGQGTTVTVSSGGGGSGGGGSGGGGSDIVMTQSHKFMSTSVGDRVSIICKASQDVGTAVDWYQQKPGQSPKLLIYWASTRHTGVPDRFTGSGSGTDFTLTITNVQSEDLADYFCQQYNSYPLTFGAGTMLDLKRAAATERRAEVPTAHPSPSPRPAGQFQTLVVGVVGGLLGSLVLLVWVLAVIVRSCRKKSARPAAGVGDTGIEDANAVRGSASQGPLTEPWAEDSPPDQPPPASARSSVGEGELQYASLSFQMVKPWDSRGQEATDTEYSEIKIHR
B9: N-CAR PD1-KIR2DL2 (SEQ ID No 1999 with intracellular domain SEQ ID No 2017) (other)
chain: EVQLQQSGPELVKPGTSVRISCKTSGYTFTEYTIHWVKQSHGKSLEWIGNINPNNGGTTYNQKFEDKATLTVDKSSSTAYMELRSLTSEDSAVYYCAAGWNFDYWGQGTTVTVSSGGGGSGGGGSGGGGSDIVMTQSHKFMSTSVGDRVSIICKASQDVGTAVDWYQQKPGQSPKLLIYWASTRHTGVPDRFTGSGSGTDFTLTITNVQSEDLADYFCQQYNSYPLTFGAGTMLDLKRAAATERRAEVPTAHPSPSPRPAGQFQTLVVGVVGGLLGSLVLLVWVLAVICSRAARGTIGARRTGQPLKEDPSAVPVFSVDYGELDFQWREKTPEPPVPCVPEQTEYATIVFPSGMGTSSPARRGSADGPRSAQPLRPEDGHCSWPLHRWCSNKKNAAVMDQESAGNRTANSEDSDEQDPQEVTYTQLNHCVFTQRKITRPSQRPKTPPTDIIVYAELPNAESRSKVVSCP
B10: N-CAR PD1 (ITSM mut 1) (SEQ ID No 1999 with intracellular domain SEQ ID No 2014) (other)
chain: B4 chain with A346S, T347E
B11: N-CAR PD1 (ITSM mut3) (SEQ ID No 1999 with intracellular domain SEQ ID No 2016) (other)
chain: B4 chain with T347S
B12: N-CAR PD1 (ITSM mut 2) (SEQ ID No 1999 with intracellular domain SEQ ID No 2015) (other)
chain: B4 chain with A346S, T347E, I348V
B13: N-CAR PD1-L2-ITSM-L2-ITSM (SEQ ID No 1999 with intracellular domain SEQ ID No 2013) (other)
chain: EVQLQQSGPELVKPGTSVRISCKTSGYTFTEYTIHWVKQSHGKSLEWIGNINPNNGGTTYNQKFEDKATLTVDKSSSTAYMELRSLTSEDSAVYYCAAGWNFDYWGQGTTVTVSSGGGGSGGGGSGGGGSDIVMTQSHKFMSTSVGDRVSIICKASQDVGTAVDWYQQKPGQSPKLLIYWASTRHTGVPDRFTGSGSGTDFTLTITNVQSEDLADYFCQQYNSYPLTFGAGTMLDLKRAAATERRAEVPTAHPSPSPRPAGQFQTLVVGVVGGLLGSLVLLVWVLAVICSRAARGTIGARRTGQPLKEDPSAVPVFSVDYGELDFQWREKTPEPPVPCVPEQTEYATIDFQWREKTPEPPVPCVPEQTEYATIDFQWREKTPEPPVPCVPEQTEYATIVFPSGMGTSSPARRGSADGPRSAQPLRPEDGHCSWPL

In the first test the target is T1, biotinylated recombinant human PSMA-human IgG1 Fc fusion protein (human, UniProt Q04609 44-750, biotinylated (sites not given)).
T1 construct: Staining reagent; not shown: human IgG1 Fc
T1 sequence (Q04609 44-750 limits assumed): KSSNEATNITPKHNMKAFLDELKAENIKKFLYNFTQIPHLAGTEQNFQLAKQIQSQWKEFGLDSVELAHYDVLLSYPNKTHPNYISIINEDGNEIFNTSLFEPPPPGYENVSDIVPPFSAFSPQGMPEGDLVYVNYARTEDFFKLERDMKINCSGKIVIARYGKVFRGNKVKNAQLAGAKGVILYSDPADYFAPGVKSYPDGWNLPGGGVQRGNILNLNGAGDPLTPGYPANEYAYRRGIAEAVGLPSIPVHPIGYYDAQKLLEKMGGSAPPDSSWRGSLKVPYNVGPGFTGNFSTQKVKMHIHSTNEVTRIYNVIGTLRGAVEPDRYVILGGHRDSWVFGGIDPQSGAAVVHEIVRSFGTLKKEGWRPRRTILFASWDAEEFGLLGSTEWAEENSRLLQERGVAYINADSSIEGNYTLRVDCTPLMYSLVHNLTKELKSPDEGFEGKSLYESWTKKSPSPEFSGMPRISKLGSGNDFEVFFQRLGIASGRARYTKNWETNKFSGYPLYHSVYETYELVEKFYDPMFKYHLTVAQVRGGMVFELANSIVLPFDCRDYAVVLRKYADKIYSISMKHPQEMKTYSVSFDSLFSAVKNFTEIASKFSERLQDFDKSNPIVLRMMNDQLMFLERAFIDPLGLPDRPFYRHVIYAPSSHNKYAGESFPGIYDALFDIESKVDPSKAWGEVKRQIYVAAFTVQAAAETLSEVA
As to the kind of experiment: flow cytometry, reporter Jurkat cells co-expressing P-CAR2 (FIGS. 6-9).
On to B1, for which the binding result was “binds”. Same read-out and setting: then B2, with “binds”; and B3, with “binds”; and B4, with “binds”.

On to B5, for which the binding result was “binds”.

For another test, the target named is T1, biotinylated recombinant human …. Nature of the test: flow cytometry, reporter Jurkat cells co-expressing P-CAR1 (FIGS. 1-4).
Turning to B6, the binding result is on record as “binds”. The same measure, in the same setting: then B7, with “binds”. As for B8, the binding result was “binds”. With B9, the binding result is on record as “binds”. Still for that read-out and setting: then B10, with “binds”; and B11, with “binds”; and B12, with “binds”. Still for that read-out and setting: then B13, with “binds”.
